We go through 83 variants from the RNAGym collection of RNA variant scans (doi:10.1093/molbev/msab373).

The chains are these.
B1: Azoarcus group I ribozyme (parent)
chain: GUGCCUUGCGCCGGGAAACCACGCAAGGGAUGGUGUCAAAUUCGGCGAAACCUAAGCGCCCGCCCGGGCGUAUGGCAACGCCGAGCCAAGCUUCGGCGCCUGCGCCGAUGAAGGUGUAGAGACUAGACGGCACCCACCUAAGGCAAACGCUAUGGUGAAGGCAUAGUCCAGGGAGUGGCGAAAGUCACACAAACCGG

The variants in this data set derive from B1. Put plainly: reverse-splicing fitness (ratio to wild type); higher = more active; in vitro selection; Mg2+ level not given. An outline of the steps: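 An in vitro group I ribozyme library with randomized positions was T7-transcribed and gel-purified. In triplicate, 10 pmol RNA in EPPS pH 7.5 was reacted with 50 pmoles of a 30-nt RNA substrate for 1 h at 37 °C across several added MgCl2 levels (1–48 mM), then stopped with EDTA. Products were reverse transcribed from a substrate-complementary primer, PCR-amplified and sequenced (HiSeq 4000). Fitness is a variant's read proportion after selection over that before, normalised to wild type.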
Turning to C82A A120C A145G C150U U176C, the reverse-splicing fitness came out at 0.0551.

As to C82A A120C C169G U176A, the reverse-splicing fitness turned out to be 0.0193. With C82A A120C C169G U176C, the reverse-splicing fitness worked out at 0.0259. With C82A A120C C169G U176G, the reverse-splicing fitness is 0.00508. With C82A A120C A145C C169U U176G the figure was 0.00354; with C82A A120C A145C C169U U176C, 0.0127; with C82A A120C A145C C169U U176A, 0.0135. With C82A A120C A145C the figure was 0.124. For the variant C82A A120C A145G, the reverse-splicing fitness is 0.136. The result for C82A A120C A145U reads 0.135; that for C82A A111U C150U C169G U176G, 0.00649. As for C82A A111U C150U C169G U176C, the reverse-splicing fitness worked out at 0.0182. For C82A A111U C150U C169G U176A, the reverse-splicing fitness was 0.0151.

As for C82A A111U C150G U176G, the reverse-splicing fitness came to 0.00369.

Turning to C82A A111U C150G U176A, the reverse-splicing fitness was determined as 0.00718. Regarding C82A A111U C150G U176C, the reverse-splicing fitness is 0.015. Turning to C82A A120C A145U C150G, the reverse-splicing fitness was determined as 0.0161. Consider C82A A120C A145U C150A, for which the reverse-splicing fitness was determined as 0.0195. With C82A A120C A145U C150U the figure was 0.086; with C82A A120C A145U C150A C169A U176C, 0.0156; with C82A A120C A145U C150A C169A U176A, 0.0198. In the case of C82A A120C A145U C150A C169A U176G, the reverse-splicing fitness is 0.00601. For the variant C82A A120C C150G C169A U176G, the reverse-splicing fitness was determined as 0.00817. On to C82A A120C C150G C169A U176C, for which the reverse-splicing fitness came to 0.0129. With C82A A120C C150G C169A U176A, the reverse-splicing fitness came out at 0.0126. The result for C82A A120C A145U C169U U176A reads 0.0169; that for C82A A120C A145U C169U U176C, 0.0114. As to C82A A120C A145U C169U U176G, the reverse-splicing fitness came out at 0.0041.

For C82A A120C A145U C150U C169U, the reverse-splicing fitness turned out to be 0.0159.

Turning to C82A A120C A145U C150U C169A, the reverse-splicing fitness turned out to be 0.00998. The result for C82A A120C A145U C150U C169G reads 0.0103; that for C82A A111U C169U U176C, 0.0132; that for C82A A111U C169U U176G, 0.00671. The result for C82A A111U C169U U176A reads 0.0152.

With C82A A120C A145G C150G C169A U176C, the reverse-splicing fitness amounted to 0.0128. Take C82A A120C A145G C150G C169A U176G: the reverse-splicing fitness was 0.00933. C82A A120C A145G C150G C169A U176A: the reverse-splicing fitness came out at 0.0141. With C82A A120C A145U C150A U176A, the reverse-splicing fitness stood at 0.0143.

With C82A A120C A145U C150A U176C, the reverse-splicing fitness turned out to be 0.0233.

As for C82A A120C A145U C150A U176G, the reverse-splicing fitness stood at 0.00574. Regarding C82A A120C C150G U176A, the reverse-splicing fitness worked out at 0.00712.

As to C82A A120C C150G U176C, the reverse-splicing fitness turned out to be 0.0106. For the variant C82A A120C C150G U176G, the reverse-splicing fitness came out at 0.00347. With C82A A120G A145C C150A, the reverse-splicing fitness was 0.00678.

On to C82A A120C A145G C169U U176G, for which the reverse-splicing fitness was found to be 0.00469. With C82A A120C A145G C169U U176C the figure was 0.0162; with C82A A120C A145G C169U U176A, 0.0173. Turning to C82A A120C A145U C150G C169A U176G, the reverse-splicing fitness worked out at 0.00455. With C82A A120C A145U C150G C169A U176A the figure was 0.0116; with C82A A120C A145U C150G C169A U176C, 0.0131; with C82A A120C A145G C150A, 0.0245.

Consider C82A A120C A145G C150U, for which the reverse-splicing fitness was 0.107.

For C82A A120C A145G C150G, the reverse-splicing fitness was found to be 0.0213. On to C82A A120C A145U C169A U176A, for which the reverse-splicing fitness was 0.0129. Turning to C82A A120C A145U C169A U176G, the reverse-splicing fitness was 0.00493.

Regarding C82A A120C A145U C169A U176C, the reverse-splicing fitness worked out at 0.0124. As for C82A A111U C150U C169U U176G, the reverse-splicing fitness came out at 0.00671. With C82A A111U C150U C169U U176C the figure was 0.0146; with C82A A111U C150U C169U U176A, 0.0146. Take C82A A111U C169U: the reverse-splicing fitness amounted to 0.014. In the case of C82A A111U C169A, the reverse-splicing fitness is 0.00917.

C82A A111U C169G: the reverse-splicing fitness was found to be 0.00884.

Turning to C82A A111U A145U C169U U176G, the reverse-splicing fitness was 0.00541.

With C82A A111U A145U C169U U176A, the reverse-splicing fitness amounted to 0.0142. The result for C82A A111U A145U C169U U176C reads 0.0139. With C82A A120C A145U C150A C169U U176G the figure was 0.00487.

Take C82A A120C A145U C150A C169U U176A: the reverse-splicing fitness came out at 0.0151. With C82A A120C A145U C150A C169U U176C, the reverse-splicing fitness worked out at 0.0126.

C82A A120C A145G C150A C169U U176A: the reverse-splicing fitness was found to be 0.0177. Regarding C82A A120C A145G C150A C169U U176C, the reverse-splicing fitness amounted to 0.0163. With C82A A120C A145G C150A C169U U176G, the reverse-splicing fitness is 0.00765. As to C82A A120C C150U, the reverse-splicing fitness turned out to be 0.0789.

Regarding C82A A120C C150A, the reverse-splicing fitness is 0.0224. For the variant C82A A120C C150G, the reverse-splicing fitness is 0.0157. C82A A111U C150A C169A: the reverse-splicing fitness was 0.0117.

As to C82A A111U C150A C169G, the reverse-splicing fitness amounted to 0.00884.

For C82A A111U C150A C169U, the reverse-splicing fitness worked out at 0.0125. The result for C82A A120C A145U C169G U176A reads 0.0152; that for C82A A120C A145U C169G U176C, 0.0191; that for C82A A120C A145U C169G U176G, 0.00482.

As for C82A A120C C150U U176A, the reverse-splicing fitness is 0.0246. On to C82A A120C C150U U176C, for which the reverse-splicing fitness came out at 0.0394. The result for C82A A120C C150U U176G reads 0.0111.
